Measurements as given in publication PMC3401526.

What was measured:
[1] = molecular target: Cav3.2 T-type calcium channel α 1H subunit (UniProt O95180)
[2] = molecular target: Cav3.2 T-type calcium channel α 1H subunit (UniProt O95180); remark: listed apart in the source

UniProt O95180, sequence (O95180 whole entry): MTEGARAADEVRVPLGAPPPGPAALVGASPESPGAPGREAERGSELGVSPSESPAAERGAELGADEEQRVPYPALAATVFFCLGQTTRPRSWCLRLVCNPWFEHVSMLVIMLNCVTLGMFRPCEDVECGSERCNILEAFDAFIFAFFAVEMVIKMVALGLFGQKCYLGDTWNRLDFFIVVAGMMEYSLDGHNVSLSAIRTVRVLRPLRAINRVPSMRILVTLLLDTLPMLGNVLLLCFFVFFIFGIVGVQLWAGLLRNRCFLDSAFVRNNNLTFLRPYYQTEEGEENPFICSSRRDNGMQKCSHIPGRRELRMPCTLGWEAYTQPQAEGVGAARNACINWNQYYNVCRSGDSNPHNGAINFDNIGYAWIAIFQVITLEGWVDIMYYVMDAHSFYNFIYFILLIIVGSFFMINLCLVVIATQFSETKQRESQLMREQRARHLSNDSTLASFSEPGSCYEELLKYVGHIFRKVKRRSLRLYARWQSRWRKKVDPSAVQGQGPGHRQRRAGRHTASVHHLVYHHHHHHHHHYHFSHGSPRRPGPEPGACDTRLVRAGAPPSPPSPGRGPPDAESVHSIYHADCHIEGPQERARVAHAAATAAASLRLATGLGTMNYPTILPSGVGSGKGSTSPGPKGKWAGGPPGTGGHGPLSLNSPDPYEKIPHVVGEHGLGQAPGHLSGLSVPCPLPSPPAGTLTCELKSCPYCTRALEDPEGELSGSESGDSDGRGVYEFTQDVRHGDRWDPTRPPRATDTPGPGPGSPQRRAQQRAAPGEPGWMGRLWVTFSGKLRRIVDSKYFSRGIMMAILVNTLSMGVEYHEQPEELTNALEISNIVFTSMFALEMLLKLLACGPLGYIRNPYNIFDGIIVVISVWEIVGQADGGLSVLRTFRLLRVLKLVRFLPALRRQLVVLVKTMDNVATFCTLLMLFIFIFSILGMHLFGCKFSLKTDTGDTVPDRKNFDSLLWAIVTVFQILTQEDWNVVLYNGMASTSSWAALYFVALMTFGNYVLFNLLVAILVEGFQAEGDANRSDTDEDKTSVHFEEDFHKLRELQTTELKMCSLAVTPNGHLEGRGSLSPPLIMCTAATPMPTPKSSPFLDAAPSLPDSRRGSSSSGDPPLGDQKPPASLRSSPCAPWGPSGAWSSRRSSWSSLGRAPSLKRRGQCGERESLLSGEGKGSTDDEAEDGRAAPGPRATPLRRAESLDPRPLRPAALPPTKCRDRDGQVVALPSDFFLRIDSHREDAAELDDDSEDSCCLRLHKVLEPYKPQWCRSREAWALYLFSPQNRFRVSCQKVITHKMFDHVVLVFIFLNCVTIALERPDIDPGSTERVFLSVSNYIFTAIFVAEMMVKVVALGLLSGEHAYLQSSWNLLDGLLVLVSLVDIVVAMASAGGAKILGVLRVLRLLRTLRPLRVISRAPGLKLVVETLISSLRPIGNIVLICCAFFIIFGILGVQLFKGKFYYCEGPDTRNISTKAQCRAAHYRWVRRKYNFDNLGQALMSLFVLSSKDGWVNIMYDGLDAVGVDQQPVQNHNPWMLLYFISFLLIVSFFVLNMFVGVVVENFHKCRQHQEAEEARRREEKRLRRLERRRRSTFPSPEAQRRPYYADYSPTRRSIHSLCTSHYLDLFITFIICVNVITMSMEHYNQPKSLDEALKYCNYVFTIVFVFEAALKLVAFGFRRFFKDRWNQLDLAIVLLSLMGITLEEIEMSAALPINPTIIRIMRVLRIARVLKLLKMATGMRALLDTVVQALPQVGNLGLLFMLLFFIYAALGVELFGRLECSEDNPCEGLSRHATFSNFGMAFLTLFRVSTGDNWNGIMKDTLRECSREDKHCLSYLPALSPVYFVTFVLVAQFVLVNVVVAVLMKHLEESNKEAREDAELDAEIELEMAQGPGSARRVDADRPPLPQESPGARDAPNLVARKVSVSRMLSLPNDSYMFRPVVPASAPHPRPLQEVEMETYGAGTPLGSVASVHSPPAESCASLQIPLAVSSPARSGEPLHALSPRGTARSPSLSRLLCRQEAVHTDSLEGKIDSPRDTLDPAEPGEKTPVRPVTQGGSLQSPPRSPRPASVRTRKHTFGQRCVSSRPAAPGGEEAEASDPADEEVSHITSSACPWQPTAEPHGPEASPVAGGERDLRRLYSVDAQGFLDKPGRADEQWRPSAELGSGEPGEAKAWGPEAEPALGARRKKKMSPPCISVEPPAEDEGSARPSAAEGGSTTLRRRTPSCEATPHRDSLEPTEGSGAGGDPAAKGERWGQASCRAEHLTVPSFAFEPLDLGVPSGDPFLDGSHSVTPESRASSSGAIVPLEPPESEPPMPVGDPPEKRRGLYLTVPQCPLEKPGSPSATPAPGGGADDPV

percentage of increase in calcium influx through Cav3.2 with respect to control, square action potential (SQAP), first stimulus [1]: 25 % increase | percentage of increase in calcium influx through Cav3.2 with respect to control, SQAP with shorter depolarization (0.5 ms at +50 mV); not a rescue of the ΔKelch effect [2]: 38 % increase | percentage of increase in calcium influx through Cav3.2 with respect to control, SQAP with shorter hyperpolarization (6 ms at -90 mV); not a rescue of the ΔKelch effect [2]: 31 % increase
Substance: ΔKelch, truncated KLHL1 mutant lacking the Kelch domains (domain or fragment)
